Values of other authors, collected in PMC12152952.

Biological target: EphA2 (ephrin type-A receptor 2) (UniProt P29317)
Conditions: 2'-fluoro on lowercase residues (all C and U; 2'-F pyrimidines), A and G are ribo

Sequence of EphA2 (ephrin type-A receptor 2) (P29317 24-537): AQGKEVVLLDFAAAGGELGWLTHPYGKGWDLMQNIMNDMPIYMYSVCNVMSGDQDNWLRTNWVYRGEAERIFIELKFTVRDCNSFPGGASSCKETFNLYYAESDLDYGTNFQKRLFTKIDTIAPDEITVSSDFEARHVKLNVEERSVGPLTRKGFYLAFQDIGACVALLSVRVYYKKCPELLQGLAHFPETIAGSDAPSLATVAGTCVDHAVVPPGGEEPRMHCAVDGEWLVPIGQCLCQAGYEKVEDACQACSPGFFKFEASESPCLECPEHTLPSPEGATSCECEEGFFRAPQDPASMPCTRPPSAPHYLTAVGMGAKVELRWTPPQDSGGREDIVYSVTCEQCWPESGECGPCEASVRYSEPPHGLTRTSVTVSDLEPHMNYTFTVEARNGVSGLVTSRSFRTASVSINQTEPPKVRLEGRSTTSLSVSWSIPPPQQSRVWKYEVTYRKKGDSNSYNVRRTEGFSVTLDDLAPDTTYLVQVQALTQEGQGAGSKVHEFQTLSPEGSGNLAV

CCUGUUGUUCGACAGGAGGCUCACAACAGG [A40s]
Kd: 0.76 nM
